The source of these data is FireProtDB (doi:10.1016/j.bbapap.2007.05.016).

For this data set the following is noted: Streptomyces sp. (strain N174), Thermal, Fluorescence, reversible: No, whole UniProt chain shown.

“And” between values parts separate entries of the source, which are not always exact repeats. Equal entries are not always repeated.

B1: Chitosanase wild type, P33665 (protein)
chain: MHSQHRTARIALAVVLTAIPASLATAGVGYASTQASTAVKAGAGLDDPHKKEIAMELVSSAENSSLDWKAQYKYIEDIGDGRGYTGGIIGFCSGTGDMLELVQHYTDLEPGNILAKYLPALKKVNGSASHSGLGTPFTKDWATAAKDTVFQQAQNDERDRVYFDPAVSQAKADGLRALGQFAYYDAIVMHGPGNDPTSFGGIRKTAMKKARTPAQGGDETTYLNAFLDARKAAMLTEAAHDDTSRVDTEQRVFLKAGNLDLNPPLKWKTYGDPYVINS
With B1, the Tm is 53.5 °C and 54 °C (pH 4.5, Sodium acetate 50 mM); 44.4 °C (pH 4.5, Sodium acetate 150 mM); 53.7 °C (pH 4.75, Sodium phosphate 50 mM); 41.3 °C (pH 7, Sodium phosphate 50 mM).
